The source of these data is patent US12692310B2, “ASIC1 channel antagonist antibody” (ShanghaiTech University, priority 2019, dated 2026).

Experiment [1] deals with T1, hASIC1a (hASIC1a-mCherry, 4C12 cells) (Homo sapiens, UniProt P78348).
T1 construct: expressed in transfected cells
Description: FLIPR assay of acid-induced ASIC1a-mediated calcium influx in 4C12 cells. The format is cell-based. The note with it: at 30 µM. The method, then:
Calcium Influx. The FLIPR Calcium 5 Assay kit was used to determine the acid-induced calcium influx in the hASIC1a-mCherry-expressing stable CHO-K1 cells (4C12). Cells were seeded in a clear bottom 96-well plate at a density of 10,000 per well 24 h before assay. Assay buffer and dye loading buffer (1.26 mM CaCl2, 0.5 mM MgCl2, 0.4 mM MgSO4, 5.33 mM KCl, 0.44 mM KH2PO4, 4.17 mM NaHCO3, 138 mM NaCl, 0.338 mM Na2HPO4, 20 mM HEPES, pH 7.4) were prepared according to the manufacturer's instruction. Probenecid was added to the dye loading buffer to a final concentration of 2.5 mM immediately before use. Fifty microliters of the assay buffer containing ASC06-IgG1 was incubated with the 4C12 cells for 30 min at 37° C., and an equal volume of the dye loading buffer was added. […] Cells were incubated with the dye loading buffer for 1 h before reading on an FDSS/μCELL plate reader (Hamamatsu). […] The progression curve of the calcium signal produced in each well was recorded continuously for 10 s before the addition of the activation buffer (preread) and 170 s after the addition on an FDSS/μCELL (excitation wavelength: 480 nm; emission wavelength: 540 nm) FLIPR reader. […]
The calcium influx of the ASIC1a was measured on a FLIPR instrument using the stable cell line 4C12 expressing hASIC1a-mCherry fusion. […]

Experiment [2] concerns the target T2, hASIC1a-eYFP (human, UniProt P78348 1-528).
T2 sequence (looked up): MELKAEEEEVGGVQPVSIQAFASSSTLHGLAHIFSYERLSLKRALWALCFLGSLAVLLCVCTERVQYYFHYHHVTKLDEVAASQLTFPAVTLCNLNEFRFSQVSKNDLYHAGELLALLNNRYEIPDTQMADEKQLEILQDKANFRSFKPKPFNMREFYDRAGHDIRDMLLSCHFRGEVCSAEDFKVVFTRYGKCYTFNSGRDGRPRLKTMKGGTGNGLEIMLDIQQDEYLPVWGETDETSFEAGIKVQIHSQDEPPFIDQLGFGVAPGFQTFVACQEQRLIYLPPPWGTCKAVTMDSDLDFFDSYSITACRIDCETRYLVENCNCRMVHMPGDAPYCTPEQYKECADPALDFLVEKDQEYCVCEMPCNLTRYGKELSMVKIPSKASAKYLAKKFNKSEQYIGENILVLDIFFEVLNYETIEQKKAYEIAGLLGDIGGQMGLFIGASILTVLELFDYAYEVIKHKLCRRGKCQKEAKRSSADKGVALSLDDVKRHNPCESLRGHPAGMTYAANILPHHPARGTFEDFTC
Description: cell-based or functional assay.

Another experiment addresses T3, hASIC1a-mCherry (human, UniProt P78348 1-528).
T3 sequence (looked up): T2 sequence (looked up)
The experiment in a line: cell-based or functional assay.

For experiment [3], the target named is T2, hASIC1a-eYFP. Description: flow cytometry on 6H7 cells (stable hASIC1a-eYFP), Alexa555 secondary antibody.
Description: In the flow cytometry-binding experiments, ASIC1a-eYFP-expressing stable cells (6H7) were collected and resuspended in ice cold FACS buffer (PBS, 0.05% BSA, 2 mM EDTA). […] After incubating at 4° C. for 15 min, the cells were washed twice and resuspended in the FACS buffer. Cells were sorted and analyzed on a flow cytometer (CytoFLEX S; Beckman Culter) to determine relative binding level by the antibodies to the stable cell lines overexpressing hASIC1a. Mean fluorescent intensities of Alexa555 in eYFP-positive cells were recorded and analyzed to calculate the apparent binding affinity of antibody.
Experiment [4] deals with truncated hASIC1a (amino acids 13-464) (human) (UniProt P78348). Description: SPR (Biacore T200), single cycle kinetics, Flag-tagged ΔhASIC1a captured on anti-Flag chip, antibody as analyte.
Another experiment deals with T4, hASIC2a-eYFP (human, UniProt Q16515 1-512).
T4 construct: whole, on cells; Transiently expressed on CHO-K1 cells; not shown: eYFP fusion
T4 sequence (looked up): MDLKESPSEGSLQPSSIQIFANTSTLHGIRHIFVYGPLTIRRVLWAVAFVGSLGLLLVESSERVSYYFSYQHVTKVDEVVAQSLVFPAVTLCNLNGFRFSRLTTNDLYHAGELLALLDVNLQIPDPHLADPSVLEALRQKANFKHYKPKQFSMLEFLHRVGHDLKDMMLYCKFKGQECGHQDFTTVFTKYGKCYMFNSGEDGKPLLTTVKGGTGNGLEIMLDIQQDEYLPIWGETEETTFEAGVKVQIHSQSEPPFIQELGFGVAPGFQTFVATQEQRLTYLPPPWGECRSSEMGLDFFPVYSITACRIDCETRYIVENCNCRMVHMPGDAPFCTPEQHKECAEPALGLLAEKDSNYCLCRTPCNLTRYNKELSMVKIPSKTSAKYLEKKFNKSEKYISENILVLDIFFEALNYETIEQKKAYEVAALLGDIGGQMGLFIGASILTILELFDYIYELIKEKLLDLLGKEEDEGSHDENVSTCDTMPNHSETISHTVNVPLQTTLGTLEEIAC
Description: flow cytometry, CHO-K1 cells transiently transfected with hASIC2a-eYFP, Alexa555-conjugated ASC06-IgG1.

Another experiment has as its target T5, hASIC3a-eYFP (human, UniProt Q9UHC3 1-531).
T5 construct: whole, on cells; Transiently expressed on CHO-K1 cells; not shown: eYFP fusion
T5 sequence (looked up): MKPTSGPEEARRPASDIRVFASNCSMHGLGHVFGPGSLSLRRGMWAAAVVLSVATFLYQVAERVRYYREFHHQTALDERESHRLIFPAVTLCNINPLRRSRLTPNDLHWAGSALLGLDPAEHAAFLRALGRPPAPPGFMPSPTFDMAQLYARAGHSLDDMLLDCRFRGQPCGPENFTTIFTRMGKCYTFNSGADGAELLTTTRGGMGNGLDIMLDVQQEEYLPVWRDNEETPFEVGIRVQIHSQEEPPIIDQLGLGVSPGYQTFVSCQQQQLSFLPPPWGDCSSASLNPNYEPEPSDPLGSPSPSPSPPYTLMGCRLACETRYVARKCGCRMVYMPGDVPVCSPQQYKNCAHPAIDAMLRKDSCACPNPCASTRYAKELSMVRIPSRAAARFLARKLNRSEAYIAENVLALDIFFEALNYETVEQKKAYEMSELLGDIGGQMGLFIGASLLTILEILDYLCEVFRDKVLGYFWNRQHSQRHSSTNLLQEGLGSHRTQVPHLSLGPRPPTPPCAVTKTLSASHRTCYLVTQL
Description: flow cytometry, CHO-K1 cells transiently transfected with hASIC3a-eYFP, Alexa555-conjugated ASC06-IgG1. In general terms: Flow cytometry measures light scatter and fluorescence of single cells or particles in a stream.

In experiment [5] the target is T6, hASIC1a Y318A mutation (hASIC1a-eYFP) (human, UniProt P78348 1-528).
T6 construct: whole, on cells; Transiently expressed on CHO-K1 cells; not shown: eYFP fusion
T6 sequence (looked up): T2 sequence (looked up) with Y318A
Description: flow cytometry, CHO-K1 cells transiently transfected with hASIC1a Y318A-eYFP, ASC06-IgG1 and labelled second antibody.

In the next experiment the target is hASIC1b-eYFP (human) (UniProt P78348). Description: flow cytometry, CHO-K1 cells transiently transfected with hASIC1b-eYFP, Alexa555-conjugated ASC06-IgG1; eYFP-positive cells without antibody signal: Q1-LR(49.22%).
A further experiment concerns the target hASIC2a/2b-eYFP (human) (UniProt Q16515). Description: flow cytometry, CHO-K1 cells transiently transfected with hASIC2a/2b-eYFP, Alexa555-conjugated ASC06-IgG1; eYFP-positive cells without antibody signal: Q1-LR(27.09%).

Positions count from the first letter of the chain named.

Description for hASIC2a-eYFP: 10,000 cells were sorted.
(§1) The CHO-K1 cells were transiently transfected with these plasmids.
Description for hASIC3a-eYFP: 10,000 cells were sorted.
as §1

With `N=C(N)NC(=O)c1nc(Cl)c(N)nc1N` [amiloride], the “inhibition of calcium influx” value in [1] was determined as 21%.

B1: ASC06-IgG1 (antibody, V domains shown)
VH: QVQLQQSGGGLVQPGGSLRLSCAASGFTFSSYAMSWVRQAPGKGLEWVSAISGSGGSTYYADSVKGRFTISRDNSKNTLYLQMNSLRAEDTAVYYCAKDSFYGYSKGDWGQGTLVTVSS
VL: QSALTQPASVSGSPGQSITISCTGTSSDVGAYNYVSWYQQQPGKAPKLMIYGVSNRPSGVSNRFSGSKSGNAASLTISGLQAEDEADYYCSSYTSSSTYVFGTGTKLTVLG
notes: also called full length (ASC06-IgG1); ASC06-lgG1
Usually EC50 stands for the concentration at which the effect is half-maximal. The low end stands for higher potency in that assay, the high end for lower potency in that assay. For orientation: Kd means the concentration at which binding is half-saturated. As for B1, the “apparent IC50 of inhibition of acid (pH 6.0)-induced currents, whole-cell patch clamp on the hASIC1a stable cell line” value with hASIC1a-eYFP [2] is 85 nM. Also, in the experiment with hASIC1a-mCherry, the “IC50 of inhibition of acid-induced calcium influx, FLIPR assay on 4C12 cells” value was 2.9 nM. The molecule also gave an EC50 with hASIC1a-eYFP [3] of 2.06 nM. The molecule also registered a Kd in [4] of 7.9 nM. The binding result (with hASIC2a-eYFP; with hASIC3a-eYFP; in experiment [5]) was “no binding” in each case. In addition, the percent of cells in quadrant Q1-UR (Alexa555 and eYFP double-positive) was found to be 0.15% with hASIC1b-eYFP (human) and 0.11% with hASIC2a/2b-eYFP (human).
